Data taken from article PMC5028032, “Linkage between Fitness of Yeast Cells and Adenylate Kinase Catalysis” (PLoS ONE, 2016).
Where a chain is given by its changes, count along the chain named. Numbers in names are those of the source.

B1: Adk1yeast (Saccharomyces cerevisiae S288C) (protein)
chain: SSESIRMVLIGPPGAGKGTQAPNLQERFHAAHLATGDMLRSQIAKGTQLGLEAKKIMDQGGLVSDDIMVNMIKDELTNNPACKNGFILDGFPRTIPQAEKLDQMLKEQGTPLEKAIELKVDDELLVARITGRLIHPASGRSYHKIFNPPKEDMKDDVTGEALVQRSDDNADALKKRLAAYHAQTEPIVDFYKKTGIWAGVDASQPPATVWADILNKLGKD
notes: full-length wild type, recombinant, 15N-enriched, purified as previously described
B2: Adkeco (Escherichia coli K-12; INS40STGDMLSAAVK/R36S) (protein)
chain: MRIILLGAPGAGKGTQAQFIMEKYGIPQISTGDMLSAAVKSTGDMLSAAVKSGSELGKQAKDIMDAGKLVTDELVIALVKERIAQEDCRNGFLLDGFPRTIPQADAMKEAGINVDYVLEFDVPDELIVDRIVGRRVHAPSGRVYHVKFNPPKVEGKDDVTGEELTTRKDDQEETVRKRLVEYHQMTAPLIGYYSKEAEAGNTKYAKVDGTKPVAEVRADLEKILG
B3: Adkeco (Escherichia coli K-12; G56C) (protein)
chain: MRIILLGAPGAGKGTQAQFIMEKYGIPQISTGDMLRAAVKSGSELGKQAKDIMDACKLVTDELVIALVKERIAQEDCRNGFLLDGFPRTIPQADAMKEAGINVDYVLEFDVPDELIVDRIVGRRVHAPSGRVYHVKFNPPKVEGKDDVTGEELTTRKDDQEETVRKRLVEYHQMTAPLIGYYSKEAEAGNTKYAKVDGTKPVAEVRADLEKILG
B4: Adkeco (Escherichia coli K-12; R36A) (protein)
chain: B3 chain with R36A, C56G

Tests used:
purified protein [1] = substrate: Nc1ncnc2c1ncn2[C@@H]1O[C@H](COP(=O)(O)OP(=O)(O)OP(=O)(O)O)[C@@H](O)[C@H]1O; assay: purified protein; type: biochemical, Saccharomyces cerevisiae; conditions: 300 μM AMP constant, 2 mM MgCl2, 80 mM KCl, 100 mM Tris pH 7.5, 20°C
purified protein [2] = substrate: Nc1ncnc2c1ncn2[C@@H]1O[C@H](COP(=O)(O)OP(=O)(O)OP(=O)(O)O)[C@@H](O)[C@H]1O; assay: purified protein; conditions: 300 μM AMP constant, 2 mM MgCl2, 80 mM KCl, 100 mM Tris pH 7.5, 20°C
[3] = 11 residues STGDMLSAAVK inserted between Lys40 and Ser41

Protein	Km (purified protein [2]) [µM]	kcat (purified protein [2]) [s⁻¹]	kcat/Km (purified protein [2]) [M⁻¹ s⁻¹]	also measured
B1	–	–	–	Km (purified protein [1]): 71 ± 18 µM; kcat (purified protein [1]): 520 ± 32 s⁻¹; kcat/Km (purified protein [1]): 7.29e+06 ± 470000 M⁻¹ s⁻¹
B2	–	–	–	Km (purified protein [2]; [3]): 127 ± 30 µM; kcat (purified protein [2]; [3]): 2 s⁻¹; kcat/Km (purified protein [2]; [3]): 20000 M⁻¹ s⁻¹
B3	34 ± 2	36	1.04e+06	–
B4	193 ± 7	19	100000	–
